Here are results for two molecules from patent US20170246263A1 (SHIRE HUMAN GENETIC THERAPIES, published 2017).

Assay [1] deals with T1, SORT1 on SORT1 overexpressing cells (Homo sapiens (Human), UniProt Q99523 78-831).
T1 construct: also called Sortilin overexpressing cells; SORT overexpressing cells
T1 sequence: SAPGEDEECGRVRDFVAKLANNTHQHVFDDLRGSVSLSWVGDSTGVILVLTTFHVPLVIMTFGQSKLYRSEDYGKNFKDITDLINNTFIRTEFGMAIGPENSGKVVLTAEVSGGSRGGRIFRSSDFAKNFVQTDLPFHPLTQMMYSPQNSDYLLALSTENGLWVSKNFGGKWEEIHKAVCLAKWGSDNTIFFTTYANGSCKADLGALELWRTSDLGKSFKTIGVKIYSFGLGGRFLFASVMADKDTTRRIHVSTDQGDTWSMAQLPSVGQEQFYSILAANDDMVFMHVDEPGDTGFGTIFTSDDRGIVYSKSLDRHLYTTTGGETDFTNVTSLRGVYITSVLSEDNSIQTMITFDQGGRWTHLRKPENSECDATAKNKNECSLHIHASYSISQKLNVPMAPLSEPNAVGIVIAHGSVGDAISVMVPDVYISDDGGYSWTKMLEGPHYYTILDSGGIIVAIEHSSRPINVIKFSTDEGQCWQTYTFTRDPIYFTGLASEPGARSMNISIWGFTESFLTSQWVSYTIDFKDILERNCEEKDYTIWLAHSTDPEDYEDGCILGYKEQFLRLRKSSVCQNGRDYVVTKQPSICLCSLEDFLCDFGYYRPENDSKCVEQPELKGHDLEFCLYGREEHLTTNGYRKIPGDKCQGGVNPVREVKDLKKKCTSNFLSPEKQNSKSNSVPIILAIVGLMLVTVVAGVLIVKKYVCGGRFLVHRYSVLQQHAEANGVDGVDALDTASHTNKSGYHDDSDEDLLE
The assay is described as follows: binding/uptake assay on SORT1 overexpressing cells; intracellular Naglu activity against fusion protein concentration; cellular uptake assay on SORT1 overexpressing cells, read as intracellular Naglu activity. The procedure:
A cell line was established overexpressing SORT1, using standard technologies known in the art. […] After a specified period of time, the supernatant was removed and the cells were washed repeatedly. Then, cells were lysed and each sample was assayed for Naglu enzyme activity.

In assay [2] the target is T2, recombinant 6xHistidine tagged human SORT1 (human, UniProt Q99523 78-755).
T2 construct: Captured on the chip by an anti-His mAb; also called SORT1-6xHis; Sortilin-6xHis
T2 sequence: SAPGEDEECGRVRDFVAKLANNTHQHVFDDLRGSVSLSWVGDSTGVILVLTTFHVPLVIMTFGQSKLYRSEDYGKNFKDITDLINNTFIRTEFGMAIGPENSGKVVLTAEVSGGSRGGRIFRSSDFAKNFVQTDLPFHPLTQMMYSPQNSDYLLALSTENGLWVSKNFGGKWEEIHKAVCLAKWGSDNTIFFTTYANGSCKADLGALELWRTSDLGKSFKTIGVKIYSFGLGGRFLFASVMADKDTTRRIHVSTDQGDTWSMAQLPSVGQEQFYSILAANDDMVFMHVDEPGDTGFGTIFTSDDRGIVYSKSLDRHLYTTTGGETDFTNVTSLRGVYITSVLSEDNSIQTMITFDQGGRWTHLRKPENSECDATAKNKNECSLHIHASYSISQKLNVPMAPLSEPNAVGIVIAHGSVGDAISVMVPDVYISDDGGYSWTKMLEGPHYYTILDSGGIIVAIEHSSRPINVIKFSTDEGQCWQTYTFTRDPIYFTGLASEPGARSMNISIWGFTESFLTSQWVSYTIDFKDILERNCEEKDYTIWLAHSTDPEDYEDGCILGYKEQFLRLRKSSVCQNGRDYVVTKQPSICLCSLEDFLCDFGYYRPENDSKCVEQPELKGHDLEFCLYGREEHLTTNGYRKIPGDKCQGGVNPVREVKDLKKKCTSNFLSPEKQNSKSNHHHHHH
The assay is described as follows: SPR; SORT1-6xHis captured by anti-His mAb, Naglu-SPP as analyte 0-20 nM. The protocol: (§1) Briefly, anti-His mAb (capturing molecule) was diluted in immobilization buffer and bound on the dextran surface of a SPR sensor chip housed in a microfluidic system. […] As the solution moved over the SPR sensor chip, the analyte bound to the capture complex and an increase in SPR signal (expressed in response units, RU) was observed. Finally, a solution without analyte was injected into the microfluidic device to detach bound […] from the capture complex, resulting in a decrease in SPR signal. The detailed experimental conditions are described in Table 6 below.

Assay [3] concerns the target T1, SORT1 on SORT1 overexpressing cells. Nature of the assay: cell-based or functional assay.
The target in assay [4] is T2, recombinant 6xHistidine tagged human …. The assay is described as follows: SPR; SORT1-6xHis captured on anti-His mAb, Naglu-SPP 0.625-20 nM as analyte; value from the fit table under the sensorgrams. The protocol: as §1
(In general: SPR reads the build-up and loss of mass on a sensor chip optically.)

B1: Naglu-tPRGN fusion protein (enzyme)
chain: DEAREAAAVRALVARLLGPGPAADFSVSVERALAAKPGLDTYSLGGGGAARVRVRGSTGVAAAAGLHRYLRDFCGCHVAWSGSQLRLPRPLPAVPGELTEATPNRYRYYQNVCTQSYSFVWWDWARWEREIDWMALNGINLALAWSGQEAIWQRVYLALGLTQAEINEFFTGPAFLAWGRMGNLHTWDGPLPPSWHIKQLYLQHRVLDQMRSFGMTPVLPAFAGHVPEAVTRVFPQVNVTKMGSWGHFNCSYSCSFLLAPEDPIFPIIGSLFLRELIKEFGTDHIYGADTFNEMQPPSSEPSYLAAATTAVYEAMTAVDTEAVWLLQGWLFQHQPQFWGPAQIRAVLGAVPRGRLLVLDLFAESQPVYTRTASFQGQPFIWCMLHNFGGNHGLFGALEAVNGGPEAARLFPNSTMVGTGMAPEGISQNEVVYSLMAELGWRKDPVPDLAAWVTSFAARRYGVSHPDAGAAWRLLLRSVYNCSGEACRGHNRSPLVRRPSLQMNTSIWYNRSDVFEAWRLLLTSAPSLATSPAFRYDLLDLTRQAVQELVSLYYEEARSAYLSKELASLLRAGGVLAYELLPALDEVLASDSRFLLGSWLEQARAAAVSEAEADFYEQNSRYQLTLWGPEGNILDYANKQLAGLVANYYTPRWRLFLEALVDSVAQGIPFQQHQFDKNVFQLEQAFVLSKQRYPSQPRGDTVDLAKKIFLKYYPRWVAGSWGAPGGGGGAAAAAGGGGGGAPGGGGGAAAAAGGGGGGAPGGGGGAAAAAGGGGGGAPTKCLRREAPRWDAPLRDPALRQLL
notes: also called Naglu-tPGRN
Turning to B1, binding in assay [1] was characterised by a dissociation constant (Kd) of 392 nM.

B2: Naglu-SPP fusion protein (enzyme)
chain: DEAREAAAVRALVARLLGPGPAADFSVSVERALAAKPGLDTYSLGGGGAARVRVRGSTGVAAAAGLHRYLRDFCGCHVAWSGSQLRLPRPLPAVPGELTEATPNRYRYYQNVCTQSYSFVWWDWARWEREIDWMALNGINLALAWSGQEAIWQRVYLALGLTQAEINEFFTGPAFLAWGRMGNLHTWDGPLPPSWHIKQLYLQHRVLDQMRSFGMTPVLPAFAGHVPEAVTRVFPQVNVTKMGSWGHFNCSYSCSFLLAPEDPIFPIIGSLFLRELIKEFGTDHIYGADTFNEMQPPSSEPSYLAAATTAVYEAMTAVDTEAVWLLQGWLFQHQPQFWGPAQIRAVLGAVPRGRLLVLDLFAESQPVYTRTASFQGQPFIWCMLHNFGGNHGLFGALEAVNGGPEAARLFPNSTMVGTGMAPEGISQNEVVYSLMAELGWRKDPVPDLAAWVTSFAARRYGVSHPDAGAAWRLLLRSVYNCSGEACRGHNRSPLVRRPSLQMNTSIWYNRSDVFEAWRLLLTSAPSLATSPAFRYDLLDLTRQAVQELVSLYYEEARSAYLSKELASLLRAGGVLAYELLPALDEVLASDSRFLLGSWLEQARAAAVSEAEADFYEQNSRYQLTLWGPEGNILDYANKQLAGLVANYYTPRWRLFLEALVDSVAQGIPFQQHQFDKNVFQLEQAFVLSKQRYPSQPRGDTVDLAKKIFLKYYPRWVAGSWGAPGGGGGAAAAAGGGGGGAPGGGGGAAAAAGGGGGGAPGGGGGAAAAAGGGGGGAPQDRLDAPPPPAAPLPRWSGPIGVSWGLRAAAAGGAFPRGGRWRR
Turning to B2, the affinity in assay [1], expressed as Kd, was 155 nM. In assay [2], the Kd (as a rule, the free concentration of one partner at which half of the binding sites on the other are occupied at equilibrium, for simple one-to-one binding) was approximately 0.66 nM; the koff (in general, the rate constant with which the complex falls apart) is approximately 0.00071 s⁻¹; the kon (usually a measure of how fast the partners come together) is approximately 1.1e+06 M⁻¹ s⁻¹. The “Kd (cellular uptake: Naglu activity in lysates of SORT1 overexpressing cells) [A]” value in assay [3] stood at 155 nM. Also, in assay [4], the Kd is 0.663 nM, the koff amounted to 0.000708 s⁻¹ and the kon is 1.07e+06 M⁻¹ s⁻¹.
